{"source": "the supplement of paper PMC10126150", "note": "± gives the standard deviation of the averaged measurements.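 Note: ATP exposure 15 min at 22 °C before imaging.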"}
{"system": "ATP", "test": "switch fluorescence ratio, 500 uM ATP over buffer (Cy3 cluster intensity, sum of 5 cycles each) (fold (ratio)); higher = stronger signal-on switching upon ATP binding; sequences stand for … in TCGTCGGCAGCGTCAGATGTGTATAAGAGACAGTTTTTTTTTTTTTTTTTTTTTTTTT…TC", "conditions": "aptamer strand: ATP DNA aptamer (quencher-CACCTGGGGGAGTATTGCGGAGGAAGG + anchor), 100 nM annealed; ATP concentration: 500 uM", "procedure,_shortened": "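Between each of five buffer/ATP cycles, the flow-cell was stripped with NaOH and re-annealed. Each cycle imaged Cy3-labelled switching-strand clusters, annealed to 100 nM quencher-labelled ATP aptamer on a modified Illumina MiSeq flow-cell, first in selection buffer and then after 15 min with 500 uM ATP at 22 °C. The fluorescence ratio is summed target-cycle over summed buffer-cycle Cy3 intensity per cluster, averaged per switch-domain sequence, with clusters outside 100-1000 RFU excluded.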"}
{"sequence": "TGGTTGGGCT", "switch fluorescence ratio": "1.01 ± 0.026"}
{"sequence": "TGGTTGGGGA", "switch fluorescence ratio": "0.994 ± 0.036"}
{"sequence": "TGGTTGGTC", "switch fluorescence ratio": "0.965 ± 0.039"}
{"sequence": "TGGTTGGTGC", "switch fluorescence ratio": "1.16 ± 0.17"}
{"sequence": "TGGTTGTTAT", "switch fluorescence ratio": "1.008 ± 0.0058"}
{"sequence": "TGGTTGTTTA", "switch fluorescence ratio": "0.993 ± 0.0045"}
{"sequence": "TGGTTTAATA", "switch fluorescence ratio": "0.9853 ± 0.0079"}
{"sequence": "TGGTTTACCA", "switch fluorescence ratio": "0.9936 ± 0.0041"}
{"sequence": "TGGTTTATTC", "switch fluorescence ratio": "0.986 ± 0.051"}
{"sequence": "TGGTTTCAGG", "switch fluorescence ratio": "1.01 ± 0.025"}
{"sequence": "TGGTTTGCCG", "switch fluorescence ratio": "1.01 ± 0.049"}
{"sequence": "TGGTTTGGTA", "switch fluorescence ratio": "0.961 ± 0.011"}
{"sequence": "TGGTTTTGCC", "switch fluorescence ratio": "1.005 ± 0.0082"}
{"sequence": "TGGTTTTGGG", "switch fluorescence ratio": "0.992 ± 0.021"}
{"sequence": "TGGTTTTTAC", "switch fluorescence ratio": "1.01 ± 0.038"}
{"sequence": "TGGTTTTTGG", "switch fluorescence ratio": "0.989 ± 0.018"}
{"sequence": "TGGTTTTTTC", "switch fluorescence ratio": "1.01 ± 0.033"}
{"sequence": "TGGTTTTTTT", "switch fluorescence ratio": "0.992 ± 0.018"}
{"sequence": "TGTAAAAACG", "switch fluorescence ratio": "1.01 ± 0.056"}
{"sequence": "TGTAAAAAGC", "switch fluorescence ratio": "1.018 ± 0.0059"}
{"sequence": "TGTAAAAGGA", "switch fluorescence ratio": "1.01 ± 0.021"}
{"sequence": "TGTAAACCGG", "switch fluorescence ratio": "1.07 ± 0.042"}
{"sequence": "TGTAAATACA", "switch fluorescence ratio": "1.15 ± 0.18"}
{"sequence": "TGTAAGCCGG", "switch fluorescence ratio": "1.05 ± 0.07"}
{"sequence": "TGTAAGGATT", "switch fluorescence ratio": "1.009 ± 0.0083"}
{"sequence": "TGTAAGGGCG", "switch fluorescence ratio": "1.02 ± 0.016"}
{"sequence": "TGTAATGGGT", "switch fluorescence ratio": "1 ± 0.029"}
{"sequence": "TGTACGACGG", "switch fluorescence ratio": "1.02 ± 0.023"}
{"sequence": "TGTACTATGG", "switch fluorescence ratio": "1.01 ± 0.04"}
{"sequence": "TGTAGAGGGC", "switch fluorescence ratio": "1.04 ± 0.026"}
{"sequence": "TGTAGAGGGT", "switch fluorescence ratio": "0.976 ± 0.029"}
{"sequence": "TGTAGGAAGT", "switch fluorescence ratio": "0.992 ± 0.017"}
{"sequence": "TGTAGGACGG", "switch fluorescence ratio": "1.09 ± 0.094"}
{"sequence": "TGTAGGGGTG", "switch fluorescence ratio": "0.987 ± 0.016"}
{"sequence": "TGTAGGTGGT", "switch fluorescence ratio": "0.978 ± 0.016"}
{"sequence": "TGTAGTAACG", "switch fluorescence ratio": "0.982 ± 0.012"}
{"sequence": "TGTAGTAGCA", "switch fluorescence ratio": "1.04 ± 0.034"}
{"sequence": "TGTATATTGG", "switch fluorescence ratio": "0.995 ± 0.015"}
{"sequence": "TGTATCTCTG", "switch fluorescence ratio": "1.02 ± 0.02"}
{"sequence": "TGTATGGCGC", "switch fluorescence ratio": "1.01 ± 0.058"}
{"sequence": "TGTATGGGGT", "switch fluorescence ratio": "0.973 ± 0.018"}
{"sequence": "TGTATGTTTT", "switch fluorescence ratio": "0.962 ± 0.046"}
{"sequence": "TGTATTATGT", "switch fluorescence ratio": "1.002 ± 0.004"}
{"sequence": "TGTATTCGGG", "switch fluorescence ratio": "0.978 ± 0.01"}
{"sequence": "TGTATTTAC", "switch fluorescence ratio": "1.11 ± 0.048"}
{"sequence": "TGTCAAAAAT", "switch fluorescence ratio": "0.982 ± 0.043"}
{"sequence": "TGTCAGACGT", "switch fluorescence ratio": "1 ± 0.011"}
{"sequence": "TGTCAGGGGT", "switch fluorescence ratio": "1.03 ± 0.043"}
{"sequence": "TGTCCCACAA", "switch fluorescence ratio": "0.999 ± 0.035"}
{"sequence": "TGTCCGCCTG", "switch fluorescence ratio": "1.07 ± 0.019"}
{"sequence": "TGTCGGAAAG", "switch fluorescence ratio": "0.985 ± 0.026"}
{"sequence": "TGTCGGCTGC", "switch fluorescence ratio": "1.09 ± 0.015"}
{"sequence": "TGTCGGGTTA", "switch fluorescence ratio": "1.01 ± 0.027"}
{"sequence": "TGTCGGTGGG", "switch fluorescence ratio": "0.992 ± 0.016"}
{"sequence": "TGTCGGTGTC", "switch fluorescence ratio": "1.01 ± 0.028"}
{"sequence": "TGTCGTCTTC", "switch fluorescence ratio": "0.99 ± 0.016"}
{"sequence": "TGTCGTGTAG", "switch fluorescence ratio": "1.01 ± 0.0094"}
{"sequence": "TGTCTCAGAT", "switch fluorescence ratio": "0.97948 ± 0.00033"}
{"sequence": "TGTCTTTTTA", "switch fluorescence ratio": "0.995 ± 0.028"}
{"sequence": "TGTGAAAGGC", "switch fluorescence ratio": "1.04 ± 0.03"}
{"sequence": "TGTGAAGTTG", "switch fluorescence ratio": "1.008 ± 0.0027"}
{"sequence": "TGTGAATGGG", "switch fluorescence ratio": "1.02 ± 0.017"}
{"sequence": "TGTGACAATA", "switch fluorescence ratio": "1.04 ± 0.01"}
{"sequence": "TGTGACAGGA", "switch fluorescence ratio": "1.02 ± 0.057"}
{"sequence": "TGTGAGTTTT", "switch fluorescence ratio": "0.974 ± 0.014"}
{"sequence": "TGTGATGCCG", "switch fluorescence ratio": "0.976 ± 0.015"}
{"sequence": "TGTGATTTTG", "switch fluorescence ratio": "0.998 ± 0.028"}
{"sequence": "TGTGCAGAAA", "switch fluorescence ratio": "0.9899 ± 0.0059"}
{"sequence": "TGTGCGACGG", "switch fluorescence ratio": "0.989 ± 0.021"}
{"sequence": "TGTGCGTCGA", "switch fluorescence ratio": "1.001 ± 0.00055"}
{"sequence": "TGTGCTGGTG", "switch fluorescence ratio": "1.039 ± 0.0068"}
{"sequence": "TGTGGAGAGC", "switch fluorescence ratio": "0.999 ± 0.038"}
{"sequence": "TGTGGCAGTT", "switch fluorescence ratio": "1.02 ± 0.027"}
{"sequence": "TGTGGGACGT", "switch fluorescence ratio": "0.952 ± 0.01"}
{"sequence": "TGTGGGATAG", "switch fluorescence ratio": "0.979 ± 0.029"}
{"sequence": "TGTGGGCATT", "switch fluorescence ratio": "1.019 ± 0.0053"}
{"sequence": "TGTGGGGAGC", "switch fluorescence ratio": "0.995 ± 0.043"}
{"sequence": "TGTGGGGGTA", "switch fluorescence ratio": "0.986 ± 0.034"}
{"sequence": "TGTGGGGTAT", "switch fluorescence ratio": "1.07 ± 0.045"}
{"sequence": "TGTGGGGTCG", "switch fluorescence ratio": "1.01 ± 0.058"}
{"sequence": "TGTGGGTGTT", "switch fluorescence ratio": "0.961 ± 0.011"}
{"sequence": "TGTGGGTTAT", "switch fluorescence ratio": "0.976 ± 0.011"}
{"sequence": "TGTGGTAAGT", "switch fluorescence ratio": "1.01 ± 0.062"}
{"sequence": "TGTGGTAGCG", "switch fluorescence ratio": "1.01 ± 0.018"}
{"sequence": "TGTGGTTGTT", "switch fluorescence ratio": "1.02 ± 0.041"}
